In patent publication EP2103936A1:

Tests used:
[1] = molecular target: bt-MalE (Escherichia coli) [MBP: P0AEX9]; assay: Biacore kinetics, bt-MalE on streptavidin SA chip, buffer M3 (5 mM DTT), 25 °C, Langmuir model
[2] = molecular target: bt-MalE (Escherichia coli) [MBP: P0AEX9]; assay: Biacore kinetics, bt-MalE on SA chip, buffer M2 (no reducing agent), heterogeneous analyte model, population 2 (kon2), taken as the non-coupled molecules of the L53ANBD preparation
[3] = molecular target: bt-MalE (Escherichia coli) [MBP: P0AEX9]; assay: Biacore kinetics, bt-MalE on SA chip, buffer M2 (no reducing agent), heterogeneous analyte model, population 2 (kon2), taken as the non-coupled molecules of the N45ANBD preparation
[4] = molecular target: bt-MalE (Escherichia coli) [MBP: P0AEX9]; assay: Biacore kinetics, bt-MalE on SA chip, buffer M2 (no reducing agent), heterogeneous analyte model, population 2 (kon2), taken as the non-coupled molecules of the T46ANBD preparation, possibly dimeric
[5] = molecular target: bt-MalE (Escherichia coli) [MBP: P0AEX9]; assay: Biacore kinetics, bt-MalE on SA chip, buffer M2 (no reducing agent), heterogeneous analyte model, population 2 (kon2), taken as the non-coupled molecules of the R23ANBD preparation

kon [1] [M⁻¹ s⁻¹] | kon [2] [M⁻¹ s⁻¹] | kon [3] [M⁻¹ s⁻¹] | kon [4] [M⁻¹ s⁻¹] | kon [5] [M⁻¹ s⁻¹] | Substance
370000 | 580000 | – | – | – | DarpOff7(L53C) (designed binder)
290000 | – | 240000 | – | – | DarpOff7(N45C) (designed binder)
170000 | – | – | 18000 | – | DarpOff7(T46C) (designed binder)
410000 | – | – | – | 430000 | DarpOff7(R23C) (designed binder)
